From patent publication US20090010920A1 come the findings set out here.

The target of the experiment is FcγRIIIa on human PBMC effector cells (heterozygous V158/F158 or allotype not stated) (human) (UniProt P08637). Nature of the experiment: cell-based or functional assay.
Chain of FcγRIIIa on human PBMC effector cells (heterozygous V158/F158 or allotype not stated) (human) (P08637 17-254): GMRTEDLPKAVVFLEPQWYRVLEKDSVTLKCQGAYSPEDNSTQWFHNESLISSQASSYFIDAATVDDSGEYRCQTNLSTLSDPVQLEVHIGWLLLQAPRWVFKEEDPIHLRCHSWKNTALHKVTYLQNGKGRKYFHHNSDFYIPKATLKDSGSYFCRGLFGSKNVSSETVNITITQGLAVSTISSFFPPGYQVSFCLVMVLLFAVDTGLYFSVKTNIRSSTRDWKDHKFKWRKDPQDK

On to S239D/I332E alemtuzumab (antibody), for which the ADCC EC50, DoHH-2 target cells, human PBMCs is 3 ng/mL and the ADCC log(EC50), DoHH-2 target cells, human PBMCs was 0.49 log(ng/ml).

As for V264I/I332E alemtuzumab (antibody), the ADCC EC50, DoHH-2 target cells, human PBMCs worked out at 4 ng/mL and the ADCC log(EC50), DoHH-2 target cells, human PBMCs was 0.6 log(ng/ml).
